Assay results: the DeepSol protein solubility set

Assay: soluble on expression in E. coli; label from the status in PepcDB or PDB records

Sequence	soluble on expression in E. coli
MASEPIQITPNLAIPPGEIVERFVRASGAGGQNVNKVSTAVELRFDVAGSPSLPEPLRARLLSRRDRRMTADGVLVIDAQRFRTQDRNREDARERLAEIINACLSVPKRRVATKPSHGAKLRRLDAKRERSQIKRGRSASHWELEHHHHHH	soluble
MFVDQVKVYVKGGDGGNGMVAFRREKYVPKGGPAGGDGGKGGDVVFEVDEGLRTLMDFRYKKHFKAIRGEHGMSKNQHGRNADDMVIKVPPGTVVTDDDTKQVIADLTEHGQRAVIARGGRGGRGNSRFATPANPAPQLSENGEPGKERYIVLELKVLADVGLVGFPSVGKSTLLSVVSSAKPKIADYHFTTLVPNLGMVETDDGRSFVMADLPGLIEGAHQGVGLGHQFLRHIERTRVIVHVIDMSGLEGRDPYDDYLTINQELSEYNLRLTERPQIIVANKMDMPEAAENLEAFKEKLTDDYPVFPISAVTREGLRELLFEVANQLENTPEFPLYDEEEL	soluble
MGSDKIHHHHHHMRLGVNEAVELSLGELQNTPSISYFNSIVLSLNKVQKGSLFVAKDHTLIPKALELGAYGILYTGEYPVSDRDVAWIKLKDIEHSLNHLFKFCLLNERVVGALLSPIELEIASKIMVSNFVWCLKESLEDLFIIEGCKIAFFDKLEWLHLFYKQEHLKEDLKESCLIILNQSFFCSALVYEKQEYEFKMPCIFLGSLKRVIQLCEKLQIEFDLNLLGKKEYPLDHCKPFFVNKNLEIAPYGTTARVIVAETSKELFEMMLQKAFEILSWGKIVVFCRKNSAAFFKKTNPYFYTTQNNLKEQLKNLAFNFAFIHGISSHHLESLLNPPFFKKTPTLW	not soluble
TTLSCKVTSVEAITDTVYRVRIVPDAAFSFRAGQYLMVVMDERDKRPFSMASTPDEKGFIELHIGASEINLYAKAVMDRILKDHQIVVDIPHGEAWLRDDEERPMILIAGGTGFSYARSILLTALARNPNRDITIYWGGREEQHLYDLCELEALSLKHPGLQVVPVVEQPEAGWRGRTGTVLTAVLQDHGTLAEHDIYIAGRFEMAKIARDLFCSERNAREDRLFGDAFAFI	soluble
MSLTDNKTVPNGAPILYIVPTPIGNLGDITQRALDVLASVDMIAVEDTRHTGKLLAHFNISTKTFALHDHNEQQKAQVLVDKLLSGLSIALVSDAGTPLISDPGYHLVTQCRQAGVKVVPLPGPCAVITALSASGLPSDSFSFEGFLPAKSKARKDKLLEIAKVSRTCIFYESPHRICESLQDMLDVLGGEREVVLARELTKTFETIQGMPLAELITWIAEDDNRKKGEMVLLVHGYRDAGEQQLPDEALRTLTILTKELPLKKAAALVAEIHQLKKNALYKWGLENLGEEGHHHHHH	soluble
MQSINLPVDHSKIDANFEGYKVSMNNVHFSSKSLDQNLCLRAPSNEMITLQHMKVFSNDNQLFCDYSKCTDSQQFLYRILDTGHIQAMVYEKKTQIWNTSIVGSIDVGTNASSAFPTNLLFTENNLVVACNGISEITVFLAVSDSNWVKMLEHKVSEQGLSLIEARILNGKLNILAYHVESDDSKKTRSRIHSIRINLDDIDYADSLTVEKSMDLIQNGHFETCTFTNNGEIIFLSSEKPHVEGQQEDMEEKATSGQSKPKPTIEEQSRYLVDIKQLITPFDGDASNYLLFKSTFDYLVHNNHFLEINMKNVALVNALTGDAKQFIVTSNIMEMGYKLTLENLEWTFNRPGFQMRLHSEMLERIKFDENDYSQMETALIKYCSIAREIQLWCGQLFTLFGFHRRITGCDRAQMEHSWEQTGNIIQVAFKLKSEISKEDVKIDTTKTGIRLIVKDLTLLSGKLSGEIDENDVEICADQKTNSLKLKLKSIDDKKWEKLISVEYDTLKSLEDSEIKRTMKGEQVIESDEPMEECDETEGSMAFYWVDQESGKVLKQCDVSGSQVLFTSRQSSTSPALICLRHDVDGLLWSFDESAPSHVATLQAFGYVQASKTSRLWSGCSPNKSLACIVEGNNRVLLYSQKVEVSGSLSNRKTSQTVSHVSKQHLLRVECSDPIRGVQLTDTHLFAATKSHIHVAELNL	not soluble
MTEKLAVFTGKLAEAGVLNETQPLSMRLHLENIQAESDPESIVPLFSHGVILNILVEQLEESIPLSHLKKGTKVRFTVVGLPPMTMSIPPHVGGQAIELIEEI	not soluble
MKINSPLEAYKYLPQTNCGECGQPTCMAFASTLIDRSGKTTDCPPLIKEKKFAKKLAELDRLLAPEIRQVTIGVGERAANIGGDDVLYRHKLTFFNKTKMFFDVADNMDEAAIVERVKKISDYKKFYVGRNLLLDGVAIRAASNDPAKFATAVKKVIENTELPVILCSFNPAVLKAGLEVAKGKNPLLYAANKDNWKEVGELALEYNVPVVVSAFNDLDGLKTLAKTFAEAGIKDIVLDPGTYPTGKGLKDTFTNFLKIRRAGIMGDTEIAYPIMAMPLTAWMAGIADPVSASYWETVLASIFTIRYGDIMLLHSMEPYATMPEVHLAETIYTDPRSPVAVDSKMYKVGNPTADSPVLFTTNFALTYYTVESDLASNGIDCWLLAVNTDGIGVEAAAAGGQLTADKVKDAFEKSGFDLKSDVTHNSVVIPGLAARLQGDIEDKLNVKVMVGPMDSGRLPGWMEKNWPPKK	not soluble
MKALLPGLYLLPVPIPYPLKTVNLYLLQGAGEVALVDTALGTRAARGALELHLAELGLCFQDVKTILLTHHHPDHYGLSGFFEGLGARVFLHEEEFARGHRFWREPEAFAEASWRLFLDHGTPEGALQGIRETVEKTRERVHPPQNPLPLRDGEALEVAGKRLRVLWTPGHADGHAAFYLEEEGVLLAGDALLEKVSPNVGLWAYTRENPLKDFLRSLDRLADLGARVAYAGHFGPIADVRQRAEELKAHHQARLEALLALLDGPKTAWELSLHLFPQELDPAGRRFAFAETLAHLEYLREEGAVGRGGPPYRYFRR	soluble
MGDNWRYEVKYDGFRTILFWTKETIRLESRNERLLTDQFPEIHDFCQRISNKVEAWLPITIDGELVHLVSPYRAHFAPIQTRSFMRKHETIAASSIKTPATLLAFDILELKGKTLVDLPYDERKKQLKALLKAIDVPLEHHHHHH	not soluble
DPHAYEHNLKSWVGNTPVFATVNQLDLDEEQSTLLKGEVGVDWYWMGYEAGKYLAERHPKGSGKTNIALLLGPRTRGGTKPVTTGFYEAIKNSDIHIVDSFWADNDKELQRNLVQRVIDMGNIDYIVGSAVAIEAAISELRSADKTHDIGLVSVYLSHGVYRGLLRNKVLFAPTDKMVQQGRLSVMQAAHYLRHQPYEKQASPIIKPLTPKTLHDDTIEESLSPSEYRPTFSIKAVD	not soluble
AGADGTSEELADNFVFGFHATVEALQQGRGNKLFLQEDARGEKIEQLKQAAKEQAVPVKWVPKAKLDTMSDHGVHQGMVLAITA	not soluble
PRYTEVTEEQIIVKQIWGQLVFDRKEMEIVPIGKDDLKSSLRTFGNGGLFGYAGYFRNKKLGKYRMYVTRLKDLSLLTDRNGKKTVINLRQV	not soluble
MDKSNGLRVILFPLPLQGCINPMIQLAKILHSRGFSITVIHTRFNAPKASNHPLFTFLQIPDGLSETETRTHDITLLLTLLNRSCESPFRECLTKLLQSADSETGEEKQRISCLIDDSGWIFTQPVAQSFNLPRLVLNTYKVSFFRDHFVLPQLRREMYLPLQDSEQGDDPVEEFPPLRKKDLLQILDQESEQLDSYSNMILETTKASSGLIFVSTCEELDQDSLSQAREDYQVPIFTIGPSHSYFPGSSSSLFTVDETCIPWLDKQEDKSVIYVSFGSISTIGEAEFMEIAWALRNSDQPFLWVVRGGSVVHGAEWIEQLHEKGKIVNWAPQQEVLKHQAIGGFLTHNGWNSTVESVFEGVPMICMPFVWDQLLNARFVSDVWMVGLHLEGRIERNVIEGMIRRLFSETEGKAIRERMEILKENVGRSVKPKGSAYRSLQHLIDYITYF	soluble
MRSYFLIFILILLLEIREVWSWKAPYLRDRPRGLGLLQLPTGISDERSGPFLPGLYIAGNKVNQKPQTVPDVHLPGQPADFTGRSAFNPFTHMVSAVYAEDLSDGWGAGMAVNGVNGHGLNVRKNFDSYADVPLNLNDGMYQPFIAAATVGGEYDLSKMREVSGSLDLPIPGVNELFDLNARILVKTFLLHNSAIEFPLTLSDPNERAPYNFRYAVWAPDRHMAYGHVVPNVNPYVIGKDKIMERLMQNRLNPTMVG	not soluble
MSLNTGHASLAQWGMSCLQWQPEWSVLDIGCGGGANLLQILQRCPQGKAYGIDISPESVTFARKKNKKYLGTRCFIEQGGVHRLPYPDYAFDAVTAFETVYFWGNLQHAFTEVARVLKPGGSFLICCEISDPANKAWTGLVEGMEIHSCDELKAILSKSGFTDTAIFRTKKEELCLVSHRQTVRLEGHHHHHH	soluble
MSLASLRVLALACLPLFAVLHADAKTLLGKVKRATGMGVGEGPSVAKKPKYTATVPGFTPPSGDQRMNEFMAVDTSGEFMRHLYIEEGRTVCASATSRNRRPTSESPHSDDVVVVEGMLRGRPETRVHAMFDGFQGRHSAMWLAQNVMNYLNDLRDVNEEEITRQFERMDGDLRAANLPGGSSALIIFVRYEKKPTEARVVGRQIVPEGAKEFTSVAEALGGPLMPVVAMNFRRDPRAAKGIYTIHVASLGNSRCVLKSGRTAIHLSTPHTASSHKERHRVQAAGGVFTTVNGELLLGGVVPMTRAFGSFDFKKGGQGKLQQDLVSAVPDVTTFFAYPGDDEGHHHHHH	not soluble
MAHHHHHHSLAEQIDLKTFKTDVADYEAARPEYPIGITDWITDEFLIDETSIILELGAGTGKFTPRIIASHPKEIIAVDVYPEMLDVLRKKFPNVDCRAGSAMAIPLEDESVDLVLCAQCFHWFANEEAMKEIYRVLKPNGKLGLVWNTRDDTVPWIEKVSKILGRYRKDAPSFVSWKWAELFPGHGFGKLRYCAFPFSRCLTVEELHTLMNSFSFIYKLPEEEKEKVHAELDEIAKTIPRVQNTDQIKLCYQTMAFSSEKEPAKEG	soluble
MEAASIAVPGAGASLRAQALDALMTPAWADKLAAVAAIDAGAPVGAQQDLAEPAGLLGRPPAPQLVPPSQVRQRSVQSPEGRAALLHALAHIEFNAINLALDAVWRYGGLPDAYYLDWLKVAREEAYHFDLLNRHLSGLGHAYGDFPAHNGLWEMAEKTRADLLARLALVPRTLEARGLDASPLIRDKLAAAGDADGAAILEIILRDEIGHVAIGNHWYKALCAQRGLDPVAQYAQLASRYGAPRLRGPFNLEARRAAGFDEDELRALLQALEHHHHHH	not soluble
MDEKKCWLVVCVQSNREKKTYERLSALGFESFLPLQEETRRWSDRSKKVQRVVIPMVVFARIAPSERISVLRLPSVSRFMVLRGESAPAIIPDAQMERFRFMLDYSEEAVEMCSERIQPGEQVKVIKGPLTGLTGELITMDGKSKVAVRINMLGAAMVEVPVGFVERI	not soluble
SLDPSKVTSMSAVEFTPLPTCLQHRSCDACMSSDLTFNCSWCHVLQRCSSGFDRYRQEWMDYGCAQEAEGRMCEDFQD	soluble
MAHHHHHHMLKKFSPLSFMVLQKRYNKSEQKIFDKIKNIINSNKNLRHTDDEKDKIEIINIDNEIINKENISFKCNIINEDSTKNENKKDNIDEMTNVNIYDDYFNINDEYNNVMSNDNDNVDIKSFIRETVDYYKSLQLKKKEDHLNVLNVKKKDYSNIKEYYNKNEEIKEIVQDNNFIWNNKNYDKKNIHSGFHSDIIYYDNYDTTKSKHNQNIQNGQNIQNGQNIQNGQNIQNNQNNQNIQNIQNNQNNQHCHNSTHEKNCGSYNFLTPAQVFFENNKEKLIQESYKYYKERENNINKEDYLYDENEGYYNYANMKTPIIRPNDKEGFLFNYEDDDYNNNDDEGEDDMTLEKGIMPTIEQIVCILKHEKVKDIKVIDLDKCGRRDIGMFLILCTGNTAKHNKKVGKLISKIFIDLEIPYISNVVYCYCNKFDDWIITHCGPLKINIVTKELRNLYDIENLFLYPHEHFDSTNFPSFFDYTPGIPPPYLVRSNASMDSYKNDDIYTKFLTEK	not soluble
